According to patent publication US20170319648A1 (BAO KANG BIOMEDICAL HEALTHCARE, published 2017):
Positions of bridges follow the written chain, without caps; N, C: chain ends. Non-standard residues stand in square brackets, D forms with d. No end group written: not given here. hCys = N[C@@H](CCS)C(=O)O

Biological target: T1, TEAD
T1 chain: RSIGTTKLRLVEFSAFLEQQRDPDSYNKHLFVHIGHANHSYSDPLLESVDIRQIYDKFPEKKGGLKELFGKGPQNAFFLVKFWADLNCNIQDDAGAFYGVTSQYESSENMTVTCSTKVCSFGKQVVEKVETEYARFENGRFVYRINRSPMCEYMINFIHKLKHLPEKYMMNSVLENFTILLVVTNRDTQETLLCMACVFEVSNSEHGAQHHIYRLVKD
Test: IC50 for TEAD binding; method not named in the example (TR-FRET test is the filing's screening method)

B1: polypeptide of SEQ ID NO.: 8 (VPMCLRKLPESFCHPPE) (peptide)
peptide: VPMCLRKLPESFCHPPE
modifications: disulfide 4-13
IC50: 28 nM

B2: polypeptide of SEQ ID NO.: 9 (VPM(Hcy)LRKLPCSFCDPPE) (peptide)
peptide: VPM[hCys]LRKLPCSFCDPPE
modifications: disulfide 4-13
IC50: 25 nM
